Measured values published in article PMC3701638.

Molecular target: α-casein

Km of α-casein phosphorylation by the kinase (in vitro kinase assay, Michaelis-Menten fit) | Substance
5.49 µM | GST-CK1δ^S328A (FP1267) (from UniProt Q06486 1-415) (enzyme)
7.74 µM | GST-CK1δ^(S328A, S370A, T397A) (FP1293) (from UniProt Q06486 1-415) (enzyme)
5.31 µM | GST-CK1δ^(S328A, S370A) (FP1292) (from UniProt Q06486 1-415) (enzyme)
6.63 µM | GST-CK1δ^(S328A, T397A) (FP1268) (from UniProt Q06486 1-415) (enzyme)
4.84 µM | GST-CK1δ (FP449), wild-type full length rat CK1δ (from UniProt Q06486 1-415) (enzyme)
7.38 µM | GST-CK1δ^S370A (FP1030) (from UniProt Q06486 1-415) (enzyme)
7.2 µM | GST-CK1δ^T397A (FP1184) (from UniProt Q06486 1-415) (enzyme)
